Laboratory results taken from patent publication US20030190342A1.

Legend:
[1] = biological target: calf skin collagen (calf); experiment: cell-based or functional assay
[2] = biological target: collagen (platelet aggregation agonist, 0.5 µg ml^-1); experiment: cell-based or functional assay
[3] = biological target: human collagen type III (human) (UniProt P02461); experiment: SPR (BIAcore 3000), immobilised human collagen type III, Scatchard analysis of plateau RU; low affinity site
[4] = biological target: human collagen type III (human) (UniProt P02461); experiment: SPR (BIAcore 3000), immobilised human collagen type III, Scatchard analysis of plateau RU; high affinity site
[5] = biological target: calf skin collagen (calf); experiment: microtiter plate competition: inhibition of binding of vWF in diluted human plasma to coated calf skin collagen
[6] = biological target: calf skin collagen (calf); experiment: microtiter plate competition: inhibition of binding of vWF in diluted murine plasma to coated calf skin collagen
[7] = biological target: calf skin collagen (calf); experiment: microtiter plate competition: inhibition of binding of vWF in diluted hamster plasma to coated calf skin collagen
[8] = biological target: calf skin collagen (calf); experiment: microtiter plate competition: inhibition of binding of vWF in diluted porcine plasma to coated calf skin collagen
[9] = biological target: human collagen type I (human) (UniProt P02452); experiment: microtiter plate competition: inhibition of binding of vWF in diluted human plasma to coated human collagen type I
Sequence of UniProt P02452 (P02452 162-1218, chain 1 of 2): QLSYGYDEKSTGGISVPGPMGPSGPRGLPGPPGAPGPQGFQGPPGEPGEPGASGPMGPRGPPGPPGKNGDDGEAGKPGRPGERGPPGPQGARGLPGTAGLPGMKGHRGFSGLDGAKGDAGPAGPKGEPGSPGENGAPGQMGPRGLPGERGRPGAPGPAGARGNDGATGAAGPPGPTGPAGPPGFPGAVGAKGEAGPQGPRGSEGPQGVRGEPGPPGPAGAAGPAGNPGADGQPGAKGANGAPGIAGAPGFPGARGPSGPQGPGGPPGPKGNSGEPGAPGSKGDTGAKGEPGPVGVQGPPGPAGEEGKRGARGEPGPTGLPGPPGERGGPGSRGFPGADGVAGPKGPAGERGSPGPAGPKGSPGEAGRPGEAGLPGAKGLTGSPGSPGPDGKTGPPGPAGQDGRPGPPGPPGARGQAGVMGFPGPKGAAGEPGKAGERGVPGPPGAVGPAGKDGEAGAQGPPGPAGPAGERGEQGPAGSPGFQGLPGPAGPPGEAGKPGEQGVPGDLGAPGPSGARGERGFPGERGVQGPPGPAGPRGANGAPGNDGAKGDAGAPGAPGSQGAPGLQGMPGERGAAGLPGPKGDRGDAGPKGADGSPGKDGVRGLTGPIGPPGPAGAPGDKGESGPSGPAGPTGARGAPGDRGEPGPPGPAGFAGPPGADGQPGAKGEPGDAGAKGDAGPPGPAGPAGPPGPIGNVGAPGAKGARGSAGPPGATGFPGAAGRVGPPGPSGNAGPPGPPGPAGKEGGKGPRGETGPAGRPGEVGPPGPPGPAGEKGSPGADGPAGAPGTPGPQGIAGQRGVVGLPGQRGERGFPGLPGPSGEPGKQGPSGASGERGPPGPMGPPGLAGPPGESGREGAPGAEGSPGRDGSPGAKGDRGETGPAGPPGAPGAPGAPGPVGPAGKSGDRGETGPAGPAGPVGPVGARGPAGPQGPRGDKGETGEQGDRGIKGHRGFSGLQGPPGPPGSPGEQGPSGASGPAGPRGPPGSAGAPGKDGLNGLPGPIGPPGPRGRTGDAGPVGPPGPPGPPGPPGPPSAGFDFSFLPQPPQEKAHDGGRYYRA
Sequence of UniProt P02452 (P08123 80-1119, chain 2 of 2, further chain): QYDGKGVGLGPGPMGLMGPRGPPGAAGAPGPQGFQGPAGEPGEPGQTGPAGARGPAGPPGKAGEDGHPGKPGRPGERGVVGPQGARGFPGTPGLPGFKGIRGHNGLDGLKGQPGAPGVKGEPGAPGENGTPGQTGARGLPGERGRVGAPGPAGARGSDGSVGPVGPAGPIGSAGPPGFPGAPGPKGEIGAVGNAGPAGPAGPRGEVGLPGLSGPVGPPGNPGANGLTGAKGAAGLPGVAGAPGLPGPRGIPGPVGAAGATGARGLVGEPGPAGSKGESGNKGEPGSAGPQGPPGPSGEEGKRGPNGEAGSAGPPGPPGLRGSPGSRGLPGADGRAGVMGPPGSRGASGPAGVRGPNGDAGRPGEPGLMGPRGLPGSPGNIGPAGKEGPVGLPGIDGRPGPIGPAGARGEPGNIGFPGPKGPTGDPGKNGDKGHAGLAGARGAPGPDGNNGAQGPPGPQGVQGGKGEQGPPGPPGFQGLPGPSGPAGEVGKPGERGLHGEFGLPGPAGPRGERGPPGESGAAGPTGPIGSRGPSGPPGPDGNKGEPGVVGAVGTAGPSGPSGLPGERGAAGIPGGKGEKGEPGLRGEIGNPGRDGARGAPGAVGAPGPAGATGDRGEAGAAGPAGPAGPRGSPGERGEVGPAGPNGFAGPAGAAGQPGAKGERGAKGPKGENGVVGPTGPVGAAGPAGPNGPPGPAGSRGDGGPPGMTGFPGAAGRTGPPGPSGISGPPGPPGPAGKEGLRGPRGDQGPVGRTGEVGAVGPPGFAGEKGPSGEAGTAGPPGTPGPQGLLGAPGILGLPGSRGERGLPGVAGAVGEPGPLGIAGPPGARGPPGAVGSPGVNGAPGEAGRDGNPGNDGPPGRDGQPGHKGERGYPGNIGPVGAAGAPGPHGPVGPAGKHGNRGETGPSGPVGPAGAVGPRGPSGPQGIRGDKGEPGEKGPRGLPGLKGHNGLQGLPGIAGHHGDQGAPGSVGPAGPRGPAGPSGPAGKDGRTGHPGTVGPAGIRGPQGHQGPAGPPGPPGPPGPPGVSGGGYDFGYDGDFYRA

[10] = biological target: human collagen type I (human) (UniProt P02452); experiment: microtiter plate competition: inhibition of binding of vWF in diluted murine plasma to coated human collagen type I
[11] = biological target: human collagen type I (human) (UniProt P02452); experiment: microtiter plate competition: inhibition of binding of vWF in diluted hamster plasma to coated human collagen type I
[12] = biological target: human collagen type III (human) (UniProt P02461); experiment: microtiter plate competition: inhibition of binding of vWF in diluted human plasma to coated human collagen type III
[13] = biological target: human collagen type I (human) (UniProt P02452); experiment: microtiter plate competition: inhibition of binding of vWF in diluted porcine plasma to coated human collagen type I
[14] = biological target: human collagen type III (human) (UniProt P02461); experiment: microtiter plate competition: inhibition of binding of vWF in diluted murine plasma to coated human collagen type III
[15] = biological target: human collagen type III (human) (UniProt P02461); experiment: microtiter plate competition: inhibition of binding of vWF in diluted porcine plasma to coated human collagen type III
[16] = biological target: human collagen type I (human) (UniProt P02452); experiment: microtiter plate competition: inhibition of purified human vWF binding to coated human collagen I; competitor purified human vWF, detected with anti-vWF-HRP
[17] = biological target: calf skin collagen (calf); experiment: microtiter plate competition: inhibition of purified human vWF binding to coated calf skin collagen; competitor purified human vWF, detected with anti-vWF-HRP
[18] = biological target: human collagen type III (human) (UniProt P02461); experiment: microtiter plate competition: inhibition of purified human vWF binding to coated human collagen III; competitor purified human vWF, detected with anti-vWF-HRP

Sequence of UniProt P02461 (P02461 154-1221): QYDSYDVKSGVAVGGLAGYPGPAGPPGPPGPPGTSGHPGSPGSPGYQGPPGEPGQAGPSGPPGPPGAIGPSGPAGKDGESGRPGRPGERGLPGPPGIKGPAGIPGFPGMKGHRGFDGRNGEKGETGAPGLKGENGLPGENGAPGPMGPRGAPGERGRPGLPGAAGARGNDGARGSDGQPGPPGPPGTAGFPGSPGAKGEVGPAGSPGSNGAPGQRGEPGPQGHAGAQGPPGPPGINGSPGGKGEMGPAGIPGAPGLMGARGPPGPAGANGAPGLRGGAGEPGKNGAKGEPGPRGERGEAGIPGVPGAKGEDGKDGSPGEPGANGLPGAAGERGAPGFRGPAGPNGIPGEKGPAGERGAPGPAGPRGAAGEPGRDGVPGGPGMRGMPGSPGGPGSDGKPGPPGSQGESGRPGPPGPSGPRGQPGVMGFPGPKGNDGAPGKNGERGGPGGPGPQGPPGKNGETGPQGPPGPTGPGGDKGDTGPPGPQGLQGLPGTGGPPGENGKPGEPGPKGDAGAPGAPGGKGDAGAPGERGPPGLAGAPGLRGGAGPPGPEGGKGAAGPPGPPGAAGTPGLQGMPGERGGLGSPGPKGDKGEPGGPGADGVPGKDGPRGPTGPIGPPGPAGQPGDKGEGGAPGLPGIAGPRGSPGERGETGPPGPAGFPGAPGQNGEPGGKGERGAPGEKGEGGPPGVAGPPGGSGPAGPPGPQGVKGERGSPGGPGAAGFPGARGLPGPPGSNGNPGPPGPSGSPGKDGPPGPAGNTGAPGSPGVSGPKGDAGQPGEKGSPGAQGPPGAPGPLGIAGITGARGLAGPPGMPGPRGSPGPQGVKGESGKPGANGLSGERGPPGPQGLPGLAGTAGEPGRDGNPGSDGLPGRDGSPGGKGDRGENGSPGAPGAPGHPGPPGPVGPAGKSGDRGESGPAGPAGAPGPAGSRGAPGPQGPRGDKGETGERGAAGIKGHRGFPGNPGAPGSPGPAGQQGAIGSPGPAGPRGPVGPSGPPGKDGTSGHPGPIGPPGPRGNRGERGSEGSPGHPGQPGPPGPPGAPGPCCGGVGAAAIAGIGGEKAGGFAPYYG

- IC50 of inhibition of platelet adhesion to collagen-coated coverslips, flow chamber, shear rate 1300 s^-1 [1]: 5.2 µg/mL
- IC50 of inhibition of platelet adhesion to collagen-coated coverslips, flow chamber, shear rate 2700 s^-1 [1]: 0.96 µg/mL
- inhibition of platelet adhesion to collagen-coated coverslips, flow chamber, shear rate 300 s^-1 [1]: > 10 µg/mL
- Aggregation (%) of platelet-rich plasma induced by collagen at 10 µg ml^-1 saratin [2]: 67%
- Aggregation (%) of platelet-rich plasma induced by collagen at 20 µg ml^-1 saratin [2]: 63%
- Aggregation (%) of platelet-rich plasma induced by collagen at 40 µg ml^-1 saratin [2]: 64%
- Aggregation (%) of platelet-rich plasma induced by collagen at 200 µg ml^-1 saratin [2]: 0%
- Kd [3]: 2000 nM
- Kd [4]: 50 nM
- IC50 [5]: 0.3 µg/mL
- IC50 [6]: 0.3 µg/mL
- IC50 [7]: 7 µg/mL
- IC50 [8]: 0.5 µg/mL
- IC50 [9]: 0.2 µg/mL
- IC50 [10]: 0.1 µg/mL
- IC50 [11]: 0.4 µg/mL
- IC50 [12]: 0.9 µg/mL
- IC50 [13]: 0.2 µg/mL
- IC50 [14]: 0.6 µg/mL
- IC50 [15]: 0.5 µg/mL
- IC50 [16]: 0.23 µg/mL
- IC50 [17]: 0.44 µg/mL
- IC50 [18]: 0.81 µg/mL
Substance: Saratin
